Results published in publication PMC3521757, “Spastin's Microtubule-Binding Properties and Comparison to Katanin” (PLoS ONE, 2012).

How the values were obtained:
[1] = target: microtubules (native, from pig brain tubulin) (pig) (UniProt P02550); experiment: single-molecule TIRF microscopy; microtubules attached to the flow cell; 10 nM GFP-enzyme; buffer 5 with 160 mM NaCl (ionic strength 0.225 M); 1 mM ATP; mono-exponential lifetime; settings: for landing rate: scale: (10 µm)^−1 ·
[2] = target: microtubules (native, from pig brain tubulin) (pig) (UniProt P02550); experiment: single-molecule TIRF microscopy; microtubules attached to the flow cell; 10 nM GFP-enzyme; buffer 5 with 300 mM NaCl (ionic strength 0.365 M); 1 mM ATP; mono-exponential lifetime; settings: for landing rate: scale: (10 µm)^−1 ·
[3] = target: microtubules (native, from pig brain tubulin) (pig) (UniProt P02550); experiment: single-molecule TIRF microscopy; microtubules attached to the flow cell by anti-tubulin antibody; 5–10 nM GFP-enzyme in solution; 1 mM ATP; landing rates and dwell times from kymographs; settings: for landing rate: scale: (10 µm)^−1 ·
[4] = target: microtubules (native, from pig brain tubulin) (pig) (UniProt P02550); experiment: single-molecule TIRF microscopy; microtubules attached to the flow cell by anti-tubulin antibody; 5–10 nM GFP-enzyme in solution; 1 mM ATP-γS; landing rates and dwell times from kymographs; settings: for landing rate: scale: (10 µm)^−1 ·
[5] = target: microtubules (native, from pig brain tubulin) (pig) (UniProt P02550); experiment: single-molecule TIRF microscopy; microtubules attached to the flow cell; 10 nM GFP-enzyme; buffer 5 with 80 mM NaCl (ionic strength 0.145 M); 1 mM ATP; dwell time is a mean, not an exponential fit; settings: for landing rate: scale: (10 µm)^−1 ·
[6] = target: microtubules (native, from pig brain tubulin) (pig) (UniProt P02550); experiment: co-sedimentation; constant microtubule concentration (1 µM for spastin, 2 µM for katanin), increasing enzyme; 1 mM ADP; BRB80, room temperature, 100,000 g; stoichiometry by extrapolation of the saturation curve
[7] = target: microtubules (native, from pig brain tubulin) (pig) (UniProt P02550); experiment: co-sedimentation; constant microtubule concentration (1 µM for spastin, 2 µM for katanin), increasing enzyme; 1 mM ATP-γS; BRB80, room temperature, 100,000 g; stoichiometry by extrapolation of the saturation curve
[8] = target: microtubules (native, from pig brain tubulin) (pig) (UniProt P02550); experiment: single-molecule TIRF microscopy; microtubules attached to the flow cell by anti-tubulin antibody; 5–10 nM GFP-enzyme in solution; 1 mM AMPPNP; landing rates and dwell times from kymographs; dwell times are lower limits; settings: for landing rate: scale: (10 µm)^−1 ·
[9] = target: microtubules (native, from pig brain tubulin) (pig) (UniProt P02550); experiment: co-sedimentation; fixed E309Q-katanin concentration, variable microtubule concentrations (native or subtilisin-treated, up to 4 µM); 100,000 g, BRB80, room temperature; SDS-PAGE of supernatants and pellets
[10] = target: subtilisin-treated microtubules (pig) (UniProt P02550); experiment: as above
subtilisin-treated microtubules (pig), sequence (P02550 whole entry, chain 1 of 2): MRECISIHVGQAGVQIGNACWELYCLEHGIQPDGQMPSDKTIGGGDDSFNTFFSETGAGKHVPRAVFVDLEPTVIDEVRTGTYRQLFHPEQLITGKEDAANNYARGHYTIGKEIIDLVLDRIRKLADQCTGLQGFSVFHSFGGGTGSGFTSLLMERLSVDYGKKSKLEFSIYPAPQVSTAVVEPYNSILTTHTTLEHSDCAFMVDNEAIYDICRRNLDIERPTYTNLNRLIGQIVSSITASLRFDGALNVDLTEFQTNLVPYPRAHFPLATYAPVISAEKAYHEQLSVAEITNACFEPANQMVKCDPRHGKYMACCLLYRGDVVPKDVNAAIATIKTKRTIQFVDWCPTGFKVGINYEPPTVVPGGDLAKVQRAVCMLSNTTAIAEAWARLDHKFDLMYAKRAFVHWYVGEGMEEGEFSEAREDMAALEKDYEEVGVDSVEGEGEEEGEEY
subtilisin-treated microtubules (pig), sequence (Q767L7 whole entry, chain 2 of 2, further chain): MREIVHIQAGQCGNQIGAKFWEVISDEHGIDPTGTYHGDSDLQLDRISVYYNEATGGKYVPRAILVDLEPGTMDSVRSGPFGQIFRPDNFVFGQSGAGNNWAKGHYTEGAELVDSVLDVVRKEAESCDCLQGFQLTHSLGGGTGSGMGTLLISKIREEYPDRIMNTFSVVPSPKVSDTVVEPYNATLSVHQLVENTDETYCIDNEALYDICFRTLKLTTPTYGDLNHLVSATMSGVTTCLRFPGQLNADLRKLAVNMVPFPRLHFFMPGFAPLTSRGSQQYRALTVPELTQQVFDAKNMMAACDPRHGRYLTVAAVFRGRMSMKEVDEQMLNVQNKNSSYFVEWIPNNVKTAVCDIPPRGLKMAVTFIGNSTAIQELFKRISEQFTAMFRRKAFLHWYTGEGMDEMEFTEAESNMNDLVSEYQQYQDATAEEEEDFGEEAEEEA

[11] = target: microtubules (native, from pig brain tubulin) (pig) (UniProt P02550); experiment: co-sedimentation; constant microtubule concentration (1 µM for spastin, 2 µM for katanin), increasing enzyme; 1 mM ATP; BRB80, room temperature, 100,000 g; stoichiometry by extrapolation of the saturation curve
[12] = target: the molecule itself; experiment: non-reducing SDS-PAGE; coiled coil wild type construct under oxidizing conditions (omission of reducing agents), compared with 1 mM mercapto-ethanol
[13] = target: microtubules (native, from pig brain tubulin) (pig) (UniProt P02550); experiment: co-sedimentation; fixed katanin construct concentration (1 µM), increasing microtubule concentrations (0 to 10 µM); band density fitted to a Hill function

GFP-FLAG HsKatanin (full-length katanin p60) (from UniProt O75449 1-491) (enzyme)
dwell time [1]: 5.6 s | koff/kon [1]: 2.82 10 nM 10 µm | landing rate [1]: 4.64 | dwell time [2]: 2.5 s | koff/kon [2]: 13.6 10 nM 10 µm | landing rate [2]: 1.93 | dwell time [3]: 4.02 s | koff/kon [3]: 1.06 10 nM 10 µm | landing rate [3]: 14.1 | dwell time [4]: 10.1 s | koff/kon [4]: 0.684 10 nM 10 µm | landing rate [4]: 8.73 | dwell time [5]: 7.3 s | koff/kon [5]: 0.609 10 nM 10 µm | landing rate [5]: 15.8 | stoichiometry N (enzyme∶tubulin) [6]: 1.1 | stoichiometry N (enzyme∶tubulin) [7]: 2.8 | dwell time [8]: > 246 s | koff/kon [8]: 0.118 10 nM 10 µm | landing rate [8]: 2.06

katanin E309Q (Walker B mutant) (from UniProt O75449 1-491) (enzyme)
half-maximal saturation (microtubule concentration) [9]: 0.4 µM | fold reduction of affinity against native microtubules [10]: > 10 fold | fraction bound at 4 µM microtubules [10]: < 0.33 | stoichiometry N (enzyme∶tubulin) [6]: 1.1 | stoichiometry N (enzyme∶tubulin) [11]: 3 | stoichiometry N (enzyme∶tubulin) [7]: 2.8

spastin E442Q mutant (from UniProt Q9UBP0 227-616) (domain or fragment)
stoichiometry N (enzyme∶tubulin) [6]: 1.3 | stoichiometry N (enzyme∶tubulin) [11]: 2.7 | stoichiometry N (enzyme∶tubulin) [7]: 2.2

wild type spastin (co-sedimentation assays) (from UniProt Q9UBP0 227-616) (domain or fragment)
stoichiometry N (enzyme∶tubulin) [6]: 1.4 | stoichiometry N (enzyme∶tubulin) [7]: 2.1

B1: coiled-coil-Δ227 HsSpastin construct (wild type) (other)
chain: AEECKRRYEKEKEKNARLKGKVEKLEIELARWRASESGAVPKRKDPLTHTSNSLPRSKTVMKTGSAGLSGHHRAPSYSGLSMVSGVKQGSGPAPTTHKGTPKTNRTNKPSTPTTATRKKKDLKNFRNVDSNLANLIMNEIVDNGTAVKFDDIAGQDLAKQALQEIVILPSLRPELFTGLRAPARGLLLFGPPGNGKTMLAKAVAAESNATFFNISAASLTSKYVGEGEKLVRALFAVARELQPSIIFIDEVDSLLCERREGEHDASRRLKTEFLIEFDGVQSAGDDRVLVMGATNRPQELDEAVLRRFIKRVYVSLPNEETRLLLLKNLLCKQGSPLTQKELAQLARMTDGYSGSDLTALAKDAALGPIRELKPEQVKNMSASEMRNIRLSDFTESLKKIKRSVSPQTLEAYIRWNKDFGDTTV
modifications: disulphide bridge between the cysteines introduced in the coiled coil domain (oxidizing conditions)
stoichiometry N [12]: 2

B2: Kat12 (domain or fragment)
chain: MSLLMISENVKLAREYALLGNYDSAMVYYQGVLDQMNKYLYSVKDTYLQQKWQQVWQEINVEAKHVKDIMKTLESFKLDSTPLKAAQHDLPASEGEVWSMPVPVERRPSPGPRKRQSSQYSDPKSHGNRPSTTVRVHRSSAQNVHNDRGKAVRCREKKEQNKGREEKNKSPAAVTEPETNK
half-maximal saturation (microtubule concentration) [13]: 0.34 µM

B3: GFP-Δ227 HsSpastin (domain or fragment)
chain: SESGAVPKRKDPLTHTSNSLPRSKTVMKTGSAGLSGHHRAPSYSGLSMVSGVKQGSGPAPTTHKGTPKTNRTNKPSTPTTATRKKKDLKNFRNVDSNLANLIMNEIVDNGTAVKFDDIAGQDLAKQALQEIVILPSLRPELFTGLRAPARGLLLFGPPGNGKTMLAKAVAAESNATFFNISAASLTSKYVGEGEKLVRALFAVARELQPSIIFIDEVDSLLCERREGEHDASRRLKTEFLIEFDGVQSAGDDRVLVMGATNRPQELDEAVLRRFIKRVYVSLPNEETRLLLLKNLLCKQGSPLTQKELAQLARMTDGYSGSDLTALAKDAALGPIRELKPEQVKNMSASEMRNIRLSDFTESLKKIKRSVSPQTLEAYIRWNKDFGDTTV
dwell time [1]: 6.4 s | landing rate [1]: 4.07 | dwell time [2]: 4.2 s | landing rate [2]: 1.61 | dwell time [3]: 10.1 s | landing rate [3]: 22.7 | dwell time [4]: 55.7 s | landing rate [4]: 21.2 | dwell time [5]: 9.6 s | landing rate [5]: 24.2 | dwell time [8]: > 254 s | landing rate [8]: 13.4

B4: Kat2 (domain or fragment)
chain: WQEINVEAKHVKDIMKTLESFKLDSTPLKAAQHDLPASEGEVWSMPVPVERRPSPGPRKRQSSQYSDPKSHGNRPSTTVRVHRSSAQNVHNDRGKAVRCREKKEQNKGREEKNKSPAAVTEPETNK
half-maximal saturation (microtubule concentration) [13]: 0.4 µM
